The target of experiment [1] is T1, Hu/NoV/GII.4/HS-191/2001/U.S. VLP (human norovirus GII.4).
T1 construct: mature; baculovirus VLP; VP2 may be present
Briefly: VLP ELISA.

Experiment [2] concerns the target T2, Hu/NoV/GII.4/MD145-12/1997/U.S. VLP (human norovirus GII.4).
T2 construct: mature; baculovirus VLP; VP2 may be present
Briefly: VLP ELISA.

Experiment [3] addresses T3, Hu/NoV/GII.4/MD2004/2004/U.S. VLP (human norovirus GII.4).
T3 construct: mature; baculovirus VLP; VP2 may be present; also called MD2004 VLP
Kind of experiment: VLP ELISA.

Experiment [4] deals with T4, Hu/NoV/GII.4/RockvilleD1/2012/U.S. VLP (human norovirus GII.4).
T4 construct: mature; baculovirus VLP; VP2 may be present
Briefly: VLP ELISA. For orientation: ELISA stands for enzyme-linked immunosorbent assay.

The target of experiment [5] is T5, Hu/NoV/Snow Mountain/GII.2/U.S. VLP (human norovirus GII.2).
T5 construct: mature; baculovirus VLP; VP2 may be present
Kind of experiment: VLP ELISA.

The target in experiment [6] is T6, Hu/NoV/GII.7/DC119/U.S. VLP (human norovirus GII.7).
T6 construct: mature; baculovirus VLP; VP2 may be present
Briefly: VLP ELISA.

The target of experiment [7] is T7, Hu/NoV/GII.1/Hawaii/1971/U.S. VLP (human norovirus GII.1).
T7 construct: mature; baculovirus VLP; VP2 may be present
Briefly: VLP ELISA.

The target in experiment [8] is T8, Hu/NoV/GII.2/Henryton/1971/U.S. VLP (human norovirus GII.2).
T8 construct: mature; baculovirus VLP; VP2 may be present
Briefly: VLP ELISA.

Experiment [9] has as its target T9, Hu/NoV/GII.3/CHDC4031/1988/U.S. VLP (human norovirus GII.3).
T9 construct: mature; baculovirus VLP; VP2 may be present
Kind of experiment: VLP ELISA.

Experiment [10] concerns the target T10, Hu/GII.6/Bethesda/2012/U.S. VLP (human norovirus GII.6).
T10 construct: mature; baculovirus VLP; VP2 may be present
Kind of experiment: VLP ELISA.

Experiment [11] addresses T11, Hu/NoV/GII.4/CHDC4871/1977/U.S. VLP (human norovirus GII.4).
T11 construct: mature; baculovirus VLP; VP2 may be present
Kind of experiment: VLP ELISA.

The target in experiment [12] is T2, Hu/NoV/GII.4/MD145-12/1997/U.S. VLP. Briefly: blockade ELISA: VLP binding to saliva Ly+. How it is done:
(§1) For this assay saliva positive for Ly antigen collected from a secretor individual was used. Saliva was boiled (95° C.) for 10 minutes immediately after collection, centrifuged for 5 minutes at 13000×g and the supernatants stored at −20° C. until used. ELISA 96 well U bottom polyvinyl plates Dynatech (Nunc, Thermo, EEUU) were coated with 100 μl/well of a 1/400 saliva dilution in 50 μM carbonate-bicarbonate buffer, pH 9.6. The plate was incubated overnight at 37° C. in a wet atmosphere. In parallel, serial two-fold dilutions of VHH starting from 8 ug/ml were mixed with 1.5 ug/ml of NoV VLP Norwalk and MD145 and incubated for 1h at 37° C. After 6 washes and a blocking step with 5% dry milk/0.05% Tween₂₀-PBS, 50 ul of each VHH-VLP mixture was transferred to the reaction plate, in duplicate. The assay was developed using a specific polyclonal antiserum made in guinea pig (1:10,000) followed by a peroxidase labeled anti-guinea pig IgG (1:2,000) and ABTS/H₂O₂ as substrate chromogen (KPL), 100 μl per well. Absorbance at 405 nm was measured. Mean % control binding, EC50 and criteria for determination of a blockade VHH were calculated as described above.

Experiment [13] concerns the target T3, Hu/NoV/GII.4/MD2004/2004/U.S. VLP. Briefly: blockade ELISA: VLP binding to PGM type III. How it is done:
(§2) Pig Gastric Mucin Type III (PGM) (Sigma Chemicals) was used as a substrate for NoV VLP antibody-blockade assay as previously described. Briefly, PGM was resuspended in PBS at 5 mg/ml and coated onto 96 well U bottom polyvinyl plates Dynatech (Nunc, Thermo, USA) at 10 μg/ml in PBS for 4 hours. Plates were then blocked ON at 4° C. in 5% dry milk in 0.05% Tween₂₀-PBS. […] One hundred μl of VLPs-VHH mix were transferred to the PGM coated plates and incubated for 1 hour. Bound VLPs were detected by specific hyperimmune sera made in guinea pig, followed by anti-guinea pig IgG-HRP (KLP). ABTS/H₂O₂ was used as chromogen/substrate solution. All incubations were performed at room temperature and absorbance at 405 nm was measured. Mean % control binding, EC50 and criteria for determination of a blockade VHH were calculated as described above.

For experiment [14], the target named is T2, Hu/NoV/GII.4/MD145-12/1997/U.S. VLP. Briefly: cell-based or functional assay.
The target in experiment [15] is T3, Hu/NoV/GII.4/MD2004/2004/U.S. VLP. Kind of experiment: cell-based or functional assay.
Experiment [16] concerns the target T12, Hu/NoV/GI.1/Norwalk/1968/U.S. VLP (human norovirus GI.1, UniProt Q83884 1-530 (Norovirus (strain entry), limits assumed)).
T12 construct: mature; full-length VP1 (ORF2) assembled as virus-like particle in baculovirus/Sf9; also called Norwalk VLP; NV
T12 sequence (looked up): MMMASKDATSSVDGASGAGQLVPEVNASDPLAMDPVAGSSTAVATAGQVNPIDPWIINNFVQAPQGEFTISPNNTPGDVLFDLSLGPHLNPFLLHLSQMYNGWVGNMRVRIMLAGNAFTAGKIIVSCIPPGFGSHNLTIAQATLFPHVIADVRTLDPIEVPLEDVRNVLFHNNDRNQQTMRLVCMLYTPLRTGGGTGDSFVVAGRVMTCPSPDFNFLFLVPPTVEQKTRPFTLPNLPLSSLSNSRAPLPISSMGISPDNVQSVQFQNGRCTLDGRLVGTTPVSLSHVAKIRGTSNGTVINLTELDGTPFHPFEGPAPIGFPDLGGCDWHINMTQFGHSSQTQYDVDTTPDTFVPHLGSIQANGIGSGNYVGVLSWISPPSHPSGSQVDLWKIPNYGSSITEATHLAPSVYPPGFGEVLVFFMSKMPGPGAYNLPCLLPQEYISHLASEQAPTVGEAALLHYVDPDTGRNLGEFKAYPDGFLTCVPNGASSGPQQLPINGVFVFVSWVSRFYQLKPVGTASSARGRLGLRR
Kind of experiment: VLP ELISA.

Experiment [17] has as its target T12, Hu/NoV/GI.1/Norwalk/1968/U.S. VLP. Kind of experiment: blockade ELISA: VLP binding to saliva Ly+. The procedure:
as §1

Experiment [18] shares this target. Briefly: blockade ELISA: VLP binding to PGM type III. The procedure: as §2
For experiment [19] the target is unchanged. Briefly: cell-based or functional assay.
The target is the same in experiment [20]. Briefly: blockade ELISA: VLP binding to synthetic HBGA H1.
Experiment [21] deals with T13, Hu/NoV/GI.1/P7-587/2007/Stromstad/Sweden VLP (human norovirus GI.1).
T13 construct: mature; baculovirus VLP; VP2 may be present; also called Norovirus 2007
Briefly: VLP ELISA.

Experiment [22] deals with T14, Hu/NoV/GI.3/Desert-Shield395/1990/U.S. VLP (human norovirus GI.3).
T14 construct: mature; baculovirus VLP; VP2 may be present
Kind of experiment: VLP ELISA.

The target of experiment [23] is T13, Hu/NoV/GI.1/P7-587/2007/Stromstad/Sweden …. Briefly: cell-based or functional assay.
Experiment [24] addresses T2, Hu/NoV/GII.4/MD145-12/1997/U.S. VLP. Kind of experiment: blockade ELISA: VLP binding to synthetic HBGA H3.

Residue numbers refer to the chain shown, from its start.

B1: VHH 19 (VHH)
VHH: QVKLQQSGGGLVQPGGSLRLSCAASGFTFRNYAMSWVRQAPGKGLEWVSAIAAGGAVTKYADSVKGRFTISRDNARDTLYLQMNSLKPEDTAVYYCAKPRDFWYSPEFDFRGQGTQVTVSS
notes: MD2004 library, subtractive biopanning; His6 tag; also called 19.1; clone 19
As usually defined, the EC50 is the concentration giving half of the maximal effect. High values mean a need for much substance, low ones an effect from little substance. With B1, the “minimum concentration of VHH able to recognize 100 ng of VLP” value (from here on “minimum concentration of VHH able”) in [1] turned out to be 1 ng/well; in experiment [2], 4 ng/well; in experiment [3], 2 ng/well; in experiment [4] it was 2 ng/well; in experiment [5] it was 2 ng/well; in [6] it was 1 ng/well. In addition, the “minimum concentration of VHH able” value in [7] was determined as 1 ng/well; in experiment [8], 2 ng/well; in experiment [9], 0.5 ng/well; in [10], 2 ng/well; in experiment [11], 1 ng/well. Further, the EC50 was 1.3 µg/mL in experiment [12] and 0.583 µg/mL in experiment [13]. Moreover, the “HAI titer, B Rh+ RBC” value in experiment [14] and in experiment [15] was 0.39 µg/mL throughout.

B2: VHH 13.1 (VHH)
VHH: QVKLQESGGGWVQAGGSLRLSCAASALTASITTMGWFRQTPEKEREFLAAINWTGDYKYYADSVKGRFTISRDNAKNTVDLQMNQLKPEDTAVYYCAASKIRNDIYLNDYTWYQYWGQGTQVTVSS
notes: llama VHH, Norwalk library, subtractive biopanning; His6 tag; also called 13.2; clone 13
For B2, the “minimum concentration of VHH able” value in experiment [16] stood at 2 ng/well. For the same molecule, the results for the concentration for a half-maximal effect (EC50) in experiment [17], in [18] and in experiment [20] were 2.27 µg/mL, 1.29 µg/mL and 2.03 µg/mL, respectively. Also, in experiment [19], the “HAI titer, 0 Rh- RBC” value was 0.19 µg/mL.

B3: VHH 7.3 (VHH)
VHH: QVKLQESGGGLVQPGGSLRLSCTASRSIFTRAMAWYRQAPGKQRELVAAIDSGDRTHYADSVKGRFTISRNNAKDTLYLQMNSLKSEDTAVYYCNANLGALLDYWGQGTQVTVSS
notes: llama VHH, Norwalk library; pHEN6, C-terminal His6 tag; also called clone 7.3
In the case of B3, the “minimum concentration of VHH able” value in experiment [16], in [21] and in [22] was 0.5 ng/well in each case. The “HAI titer, 0 Rh- RBC” value is 0.39 µg/mL in experiment [19] and 0.05 µg/mL in experiment [23].

B4: VHH 5.4 (VHH)
VHH: QVQLQQSGGGLVQPGGSLRLSCVASESTVSINIMGWYRQAPGKQRELVATITTGGTTNYADSVKGRFTISRDNAKNTVYLQMNSLEPEDTAVYYCNLKRRDLQARFGGYWGQGTQVTVSS
notes: llama VHH, MD2004 library; pHEN6, C-terminal His6 tag; also called clone 5.4
Take B4: the “minimum concentration of VHH able” value in experiment [1] turned out to be 0.25 ng/well; in experiment [2], 4 ng/well; in experiment [3] it was 1 ng/well; in [4], 0.5 ng/well; in [5], 2 ng/well; in experiment [6] it was 0.5 ng/well. The “minimum concentration of VHH able” value in experiment [7] turned out to be 1 ng/well; in [8], 2 ng/well; in [9] it was 0.5 ng/well; in experiment [10] it was 1 ng/well; in [11], 0.5 ng/well. Also, the EC50 came to 1.27 µg/mL in experiment [12], 0.718 µg/mL in [24] and 2.02 µg/mL in [13]. The “HAI titer, B Rh+ RBC” value in [14] and in [15] was 0.39 µg/mL in each case.

B5: VHH 4.1 (VHH)
VHH: B4 VHH with Q3K, V23A, V29I, I33T, M34L, K43N, S84N, E88G, A104S
notes: llama VHH, MD2004 library; pHEN6, C-terminal His6 tag; also called clone 4.1
Consider B5, for which the “minimum concentration of VHH able” value in experiment [1] is 0.5 ng/well; in experiment [2] it was 2 ng/well; in [3] it was 2 ng/well; in experiment [4], 1 ng/well; in [5] it was 2 ng/well; in experiment [6] it was 0.5 ng/well. In addition, the “minimum concentration of VHH able” value in experiment [7] is 1 ng/well; in [8] it was 1 ng/well; in [9] it was 2 ng/well; in [10], 2 ng/well; in [11], 0.5 ng/well. The values for the EC50 in experiment [12], in experiment [24] and in experiment [13] were 1.38 µg/mL, 0.712 µg/mL and 2.91 µg/mL, respectively. Besides, the results for the “HAI titer, B Rh+ RBC” value in experiment [14] and in [15] were 0.39 µg/mL and 0.19 µg/mL, respectively.

B6: VHH 6.3 (VHH)
VHH: QVQLQQSGGGLVQPGGSLRLSCAASGSIFSIHTMGWYRQAPGKQRELVTTITTGGTTNYADSVKGRFTISRDDAKNTVYLQMNNLKPEDTAVYYCYALIQTASTTWYRQYWGQGTQVTVSS
notes: llama VHH, Norwalk (GI.1) library; also called clone 6.3
Regarding B6, the “minimum concentration of VHH able” value in experiment [16] and in experiment [21] was 0.5 ng/well throughout. Besides, the EC50 came to 2.04 µg/mL in experiment [17], 0.661 µg/mL in [18] and 1.01 µg/mL in [20]. Besides, the “HAI titer, 0 Rh- RBC” value in [19] was 0.19 µg/mL; in [23] it was 0.05 µg/mL.

The values above are taken from patent publication US20200283507A1 (US Dept. of Health and Human Services, published 2020).
